Test results: US20210147523A1 (TEIJIN PHARMA, published 2021)

Target: T1, human SPNS2 L196A mutant (human, UniProt Q8IVW8 1-549)
T1 sequence: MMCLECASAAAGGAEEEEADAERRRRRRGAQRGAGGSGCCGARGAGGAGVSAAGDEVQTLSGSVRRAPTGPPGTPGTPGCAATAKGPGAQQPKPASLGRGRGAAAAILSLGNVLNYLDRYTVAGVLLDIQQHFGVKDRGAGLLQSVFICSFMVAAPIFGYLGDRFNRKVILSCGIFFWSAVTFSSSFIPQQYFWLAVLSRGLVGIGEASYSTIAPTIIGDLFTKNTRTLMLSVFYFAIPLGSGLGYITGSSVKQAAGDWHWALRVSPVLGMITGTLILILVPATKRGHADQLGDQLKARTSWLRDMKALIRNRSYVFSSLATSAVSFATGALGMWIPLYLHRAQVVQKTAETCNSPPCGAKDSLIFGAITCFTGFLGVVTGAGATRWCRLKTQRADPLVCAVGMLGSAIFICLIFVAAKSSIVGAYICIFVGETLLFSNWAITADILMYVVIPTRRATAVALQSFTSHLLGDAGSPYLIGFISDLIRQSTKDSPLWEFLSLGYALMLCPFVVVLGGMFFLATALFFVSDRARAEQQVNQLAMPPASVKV
Assay: flow cytometry

B1: 65-0810G (antibody, IgG2b, V domains shown)
VH: EVHLVESGGGLVQPGRSMKLSCTASGFTFNNYYMAWVRQAPTKGLEWVASISTGGGYTYYRDSVKGRFTISRDNTGNTLYLQMDSLRSEDTATYYCARCWELPYWGQGVMVTVSS
VL: QFVLTQPNSVSTNLGSTVKLSCRRSSGNIGNNYVNWYRQHEGRSPTTMIYRDDTRPDGVPNRFSGSIDRSSNSALLTINNVRPEDEAYYFCQSYSGSIYIFGGGTKLTVL
Which “binding ratio vs native type” value does the source give for B1 here?
Its value is under 0.5 ratio.
